What all share (conditions): modification not given
For experiment [1], the target named is Melanocortin receptor 3 (Homo sapiens), P41968. As to the kind of experiment: competition.
The target of experiment [2] is Melanocortin receptor 5 (Homo sapiens), P33032. Description: competition.
Experiment [3] deals with Melanocortin receptor 4 (Homo sapiens), P32245. Description: competition.
The target of experiment [4] is Melanocortin receptor 1 (Homo sapiens), Q01726. As to the kind of experiment: 125I-NDP-α-MSH competition binding (membrane filtration).
Sequence of Melanocortin receptor 1 (Homo sapiens), Q01726 (Q01726 whole entry): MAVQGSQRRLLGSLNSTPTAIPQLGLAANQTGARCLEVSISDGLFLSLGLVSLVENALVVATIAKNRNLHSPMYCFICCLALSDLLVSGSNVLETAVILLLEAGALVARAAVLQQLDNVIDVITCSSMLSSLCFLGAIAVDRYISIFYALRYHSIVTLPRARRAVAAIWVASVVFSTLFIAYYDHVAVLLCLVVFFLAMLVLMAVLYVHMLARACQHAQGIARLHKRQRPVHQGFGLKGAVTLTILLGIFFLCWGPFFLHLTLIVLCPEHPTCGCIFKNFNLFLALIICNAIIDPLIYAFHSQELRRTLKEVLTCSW

Sequence of Melanocortin receptor 5 (Homo sapiens), P33032 (P33032 whole entry): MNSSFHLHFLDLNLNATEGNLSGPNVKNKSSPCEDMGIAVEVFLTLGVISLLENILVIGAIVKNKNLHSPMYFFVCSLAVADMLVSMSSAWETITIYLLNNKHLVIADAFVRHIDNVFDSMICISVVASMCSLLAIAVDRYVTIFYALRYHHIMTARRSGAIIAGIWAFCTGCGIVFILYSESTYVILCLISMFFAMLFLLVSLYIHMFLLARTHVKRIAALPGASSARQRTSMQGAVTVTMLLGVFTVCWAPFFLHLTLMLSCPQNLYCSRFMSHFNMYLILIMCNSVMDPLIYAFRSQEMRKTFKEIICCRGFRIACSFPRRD
Sequence of Melanocortin receptor 3 (Homo sapiens), P41968 (P41968 whole entry): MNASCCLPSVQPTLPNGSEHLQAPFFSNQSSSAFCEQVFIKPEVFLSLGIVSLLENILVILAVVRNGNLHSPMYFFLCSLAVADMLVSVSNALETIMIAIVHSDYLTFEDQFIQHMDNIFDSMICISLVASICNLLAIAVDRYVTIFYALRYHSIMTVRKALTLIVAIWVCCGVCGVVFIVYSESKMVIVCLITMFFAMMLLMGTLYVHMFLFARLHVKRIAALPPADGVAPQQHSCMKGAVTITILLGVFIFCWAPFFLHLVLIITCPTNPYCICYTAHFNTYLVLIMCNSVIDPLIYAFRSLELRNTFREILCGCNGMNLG
Sequence of Melanocortin receptor 4 (Homo sapiens), P32245 (P32245 whole entry): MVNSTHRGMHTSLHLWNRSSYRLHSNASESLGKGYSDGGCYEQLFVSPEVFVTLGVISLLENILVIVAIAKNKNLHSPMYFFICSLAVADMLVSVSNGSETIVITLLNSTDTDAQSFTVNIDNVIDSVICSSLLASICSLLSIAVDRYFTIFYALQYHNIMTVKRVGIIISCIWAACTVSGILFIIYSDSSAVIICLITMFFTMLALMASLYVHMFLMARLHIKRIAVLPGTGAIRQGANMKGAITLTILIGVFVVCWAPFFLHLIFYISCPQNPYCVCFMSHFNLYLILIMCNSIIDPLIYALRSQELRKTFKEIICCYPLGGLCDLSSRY

B1: ACTH, P01189 (peptide)
chain: SYSMEHFRWGKPVGKKRRPVKVYPNGAEDESAEAFPLEF
As for B1, the inhibitory constant (Ki) in experiment [1] was determined as 11.1 nM; in experiment [2], 46 nM; in experiment [3], 1.2 nM; in experiment [4], 0.09 nM.

These data come from publication PMC4604100, “Melanocortin agonists stimulate lipolysis in human adipose tissue explants but not in adipocytes” (BMC Research Notes, 2015).
